This note sets out measurements from PMC2193777.

The target in the data set is strepAID (human, UniProt Q9GZX7 1-198). Briefly: EMSA.
Sequence of strepAID (Q9GZX7 whole entry): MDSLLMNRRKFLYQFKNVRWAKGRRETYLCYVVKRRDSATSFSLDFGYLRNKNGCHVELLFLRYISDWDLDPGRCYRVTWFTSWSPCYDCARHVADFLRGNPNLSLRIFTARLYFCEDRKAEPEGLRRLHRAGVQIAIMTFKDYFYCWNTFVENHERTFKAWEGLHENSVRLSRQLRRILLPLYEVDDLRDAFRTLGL

As to ATCGGAATGTATGAGAATAGAAGAGATAATGAATAATAGAA (ssDNA) [ssDNA (TCGend)], the binding result is “binds”.

For the molecule AUCGGAAUGUAUGAGAAUAGAAGAGAUAAUGAAUAAUAGAA (ssRNA) [ssRNA], the binding result is given as “binds”.
